Test results: IntAct's records for PubMed 25764370

B1: Structural maintenance of chromosomes protein 5 (Saccharomyces cerevisiae), Q08204 (parent)
chain: MTSLIDLGRYVERTHHGEDTEPRSKRVKIAKPDLSSFQPGSIIKIRLQDFVTYTLTEFNLSPSLNMIIGPNGSGKSTFVCAVCLGLAGKPEYIGRSKKVEDFIKNGQDVSKIEITLKNSPNVTDIEYIDARDETIKITRIITRSKRRSDYLINDYQVSESVVKTLVAQLNIQLDNLCQFLSQERVEEFARLKSVKLLVETIRSIDASLLDVLDELRELQGNEQSLQKDLDFKKAKIVHLRQESDKLRKSVESLRDFQNKKGEIELHSQLLPYVKVKDHKEKLNIYKEEYERAKANLRAILKDKKPFANTKKTLENQVEELTEKCSLKTDEFLKAKEKINEIFEKLNTIRDEVIKKKNQNEYYRGRTKKLQATIISTKEDFLRSQEILAQTHLPEKSVFEDIDIKRKEIINKEGEIRDLISEIDAKANAINHEMRSIQRQAESKTKSLTTTDKIGILNQDQDLKEVRDAVLMVREHPEMKDKILEPPIMTVSAINAQFAAYLAQCVDYNTSKALTVVDSDSYKLFANPILDKFKVNLRELSSADTTPPVPAETVRDLGFEGYLSDFITGDKRVMKMLCQTSKIHTIPVSRRELTPAQIKKLITPRPNGKILFKRIIHGNRLVDIKQSAYGSKQVFPTDVSIKQTNFYQGSIMSNEQKIRIENEIINLKNEYNDRKSTLDALSNQKSGYRHELSELASKNDDINREAHQLNEIRKKYTMRKSTIETLREKLDQLKREARKDVSQKIKDIDDQIQQLLLKQRHLLSKMASSMKSLKNCQKELISTQILQFEAQNMDVSMNDVIGFFNEREADLKSQYEDKKKFVKEMRDTPEFQSWMREIRSYDQDTKEKLNKVAEKYEEEGNFNLSFVQDVLDKLESEIAMVNHDESAVTILDQVTAELRELEHTVPQQSKDLETIKAKLKEDHAVLEPKLDDIVSKISARFARLFNNVGSAGAVRLEKPKDYAEWKIEIMVKFRDNAPLKKLDSHTQSGGERAVSTVLYMIALQEFTSAPFRVVDEINQGMDSRNERIVHKAMVENACAENTSQYFLITPKLLTGLHYHEKMRIHCVMAGSWIPNPSEDPKMIHFGETSNYSFD
partner: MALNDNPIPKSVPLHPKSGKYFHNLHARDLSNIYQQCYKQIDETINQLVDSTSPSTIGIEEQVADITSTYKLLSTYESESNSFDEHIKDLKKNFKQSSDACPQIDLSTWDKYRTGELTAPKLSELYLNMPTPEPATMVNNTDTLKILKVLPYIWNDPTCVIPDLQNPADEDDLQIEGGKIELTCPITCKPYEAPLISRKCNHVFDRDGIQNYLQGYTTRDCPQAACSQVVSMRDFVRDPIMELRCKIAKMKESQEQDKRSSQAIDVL
B2: Structural maintenance of chromosomes protein 5 (Saccharomyces cerevisiae), Q08204 (parent)
chain: B1 chain

Variants of: B1
Details: with nse2_yeast MMS21, P38632

Row | effect of a mutation on the interaction | Variant
1 | decreasing interaction strength | Q752A;L755A;L762A
2 | disrupting interaction strength | I780R;I784R;F787A;N791A

Variants of: B2
Details: with smt3_yeast SMT3, Q12306
Chain of smt3_yeast SMT3, Q12306 (Q12306 whole entry): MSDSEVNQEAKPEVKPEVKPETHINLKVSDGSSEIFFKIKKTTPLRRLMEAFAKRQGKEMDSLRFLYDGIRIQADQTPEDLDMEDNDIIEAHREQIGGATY

Row | effect of a mutation on the interaction | Variant
3 | disrupting interaction strength | I780R;I784R;F787A;N791A
4 | decreasing interaction strength | Q752A;L755A;L762A
5 | decreasing interaction strength | M769A;K773A
